The results in this text go back to US20120237948A1 (published 2012).

What all share (experiment): competitive ELISA
On the technique in general: ELISA stands for enzyme-linked immunosorbent assay.

The target of assay [1] is neoepitope peptide Asp-Gly-Pro-Ser-Gly-Ala-Glu-Gly-Pro-HyP-Gly-Pro-Gln-Gly (SEQ ID NO: 14) (hydroxyproline (HyP) at position 10 of the peptide (position 971)).
Assay [2] has as its target T1, peptide Gly-Glu-Pro-Gly-Asp-Asp-Gly-Pro-Ser-Gly-Ala-Glu-Gly-Pro-Pro-Gly-Pro-Gln-Gly (SEQ ID NO: 18).
T1 peptide: GEPGDDGPSGAEGPPGPQG

The target in assay [3] is T2, neoepitope peptide Gly-Pro-Gln-Gly (SEQ ID NO: 15).
T2 peptide: GPQG

Assay [4] addresses T3, peptide Gly-Glu-Pro-Gly-Asp-Asp-Gly-Pro-Ser-Gly-Ala-Glu-Gly-Pro-HyP-Gly-Pro-Gln-Gly (SEQ ID NO: 17).
T3 peptide: GEPGDDGPSGAEGP[Hyp]GPQG

Assay [5] has as its target T4, peptide Gly-Pro-Pro-Gly-Pro-Gln-Gly-Leu-Ala-Gly-Gln-Arg (SEQ ID NO: 16).
T4 peptide: GPPGPQGLAGQR

Square brackets hold non-standard residues; d marks the D form. Ends that are not written are not given here. Hyp = O=C(O)[C@@H]1C[C@@H](O)CN1

B1: anti-neoepitope antibody 20A10 (antibody, V domains shown)
VH: QIQLVQSGPELKEPGETVRISCKASGYTFTKYGINWVKQAPGKGLEWMAWINTYSGMTTYADDFKGRFAFSLETSANTAYLQINHLKNDDTATYFCARSLGYDYGGFAYWGQGTLVTVSA
VL: DVLLTQTPLSLPVSLGDQAFISCRSGQTLVHDNENTYFHWYLQKPGQSPKLLIYKISNRFSGVPDRFSGSGSGTDFTLKISRVEPEDLGIYFCSQNTHVPFTFGSGTKLEIKR
On to B1, for which the half-inhibitory concentration (IC50) is 40 nM in assay [1]; 22 nM in assay [2]; 99000 nM in assay [3]; 20 nM in assay [4]; 20200 nM in assay [5].

By IC50 is commonly meant the concentration needed to halve the response being measured. Low readings indicate greater potency in that assay, high ones weaker potency in that assay.
